The first test addresses T1, HLA-A*01:01 (human).
T1 construct: Peptide-receptive MHC monomer made by UV cleavage of a UV-sensitive peptide
The experiment in a line: UV-ligand exchange, anti-b2m ELISA; exchange yield grade (+ >10%, ++ >20%, +++ >50, ++++ >75%). An excerpt: (§1) Candidate peptides for T cell based therapies according to the present invention were further tested for their MHC binding capacity (affinity). The individual peptide-MHC complexes were produced by UV-ligand exchange, where a UV-sensitive peptide is cleaved upon UV-irradiation, and exchanged with the peptide of interest as analyzed. Only peptide candidates that can effectively bind and stabilize the peptide-receptive MHC molecules prevent dissociation of the MHC complexes. To determine the yield of the exchange reaction, an ELISA was performed based on the detection of the light chain (β2m) of stabilized MHC complexes. The assay was performed as generally described in Rodenko et al. (Rodenko et al., 2006).
(§2) 96 well MAXISorp plates (NUNC) were coated over night with 2 ug/ml streptavidin in PBS at room temperature, washed 4× and blocked for 1 h at 37° C. in 2% BSA containing blocking buffer. Refolded HLA-A*02:01/MLA-001 monomers served as standards, covering the range of 15-500 ng/ml. Peptide-MHC monomers of the UV-exchange reaction were diluted 100-fold in blocking buffer. Samples were incubated for 1 h at 37° C., washed four times, incubated with 2 ug/ml HRP conjugated anti-β2m for 1 h at 37° C., washed again and detected with TMB solution that is stopped with […]. Absorption was measured at 450 nm. Candidate peptides that show a high exchange yield (preferably higher than 50%, most preferred higher than 75%) are generally preferred for a generation and production of antibodies or fragments thereof, and/or T cell receptors or fragments thereof, as they show sufficient avidity to the MHC molecules and prevent dissociation of the MHC complexes.
In general terms: ELISA stands for enzyme-linked immunosorbent assay.
As to TPVTEFSLNTY, the peptide exchange yield is 20 to 50%.
On to YSDLHAFYY, for which the peptide exchange yield was above 75%.
SILGSDVRVPSY gave a peptide exchange yield of 20 to 50%.
The molecule ASSTDSASYY registered a peptide exchange yield of 50 to 75%.
Same read-out and setting: as for LTDYINANY, the figure is 50 to 75%; as for VTDLEMPHY, above 75%; as for STDEITTRY, 50 to 75%.
Turning to FSDKELAAY, the peptide exchange yield is above 75%.
For ITDFNNIRY, the peptide exchange yield is 50 to 75%.
As to VLDLSTNVY, the peptide exchange yield was in the range of 50 to 75%.
The molecule NSDLKYNAL had a peptide exchange yield of 20 to 50%.
The same measure, in the same setting: as for RSPNNFLSY, the figure is 20 to 50%; as for LPSPTDSNFY, 20 to 50%; as for STDIGALMY, 50 to 75%.
Regarding LDSHIHAY, the peptide exchange yield was in the range of 10 to 20%.
Take TASEDVFQY: the peptide exchange yield lay in the range of 10 to 20%.
In turn, FITAQNHGY returned a peptide exchange yield of 20 to 50%.
LITGDPKAAYDY yielded a peptide exchange yield of 20 to 50%.
As for RSDPGGGGLAY, the peptide exchange yield was in the range of 50 to 75%.
Turning to EVLDSHIHAY, the peptide exchange yield is 10 to 20%.
Same read-out and setting: the figure for VLDSHIHAY is 50 to 75%.
On the same count and under the same terms, as for FASDLLHLY, the figure is 20 to 50%; as for FADKIHLAY, 50 to 75%; as for LTDSFPLKV, 50 to 75%.
Regarding YAAYIIHAY, the peptide exchange yield lay in the range of 50 to 75%.
With YSHAAGQGTGLY, the peptide exchange yield lay in the range of 50 to 75%.
Turning to TLEQVQLYY, the peptide exchange yield fell in the range of 50 to 75%.
In the case of SVTDLEMPHY, the peptide exchange yield lay within 10 to 20%.
Still for that read-out and setting: the figure for ATVGYFIFY is 20 to 50%; for LMKEVMEHY it is 20 to 50%.
YTHHLFIFY returned a peptide exchange yield of 10 to 20%.

A further test addresses T2, HLA-B*07:02 (human).
T2 construct: Peptide-receptive MHC monomer made by UV cleavage of a UV-sensitive peptide
The test is described as above.
Text: as §1, §2
Molecule MPMISIPRV yielded a peptide exchange yield of 20 to 50%.
KPSSKALGTSL gave a peptide exchange yield of 50 to 75%.
YPSEVEHMF gave a peptide exchange yield of 20 to 50%.
Take IPTDKLLVI: the peptide exchange yield fell in the range of 20 to 50%.
Molecule IPEPSAQQL yielded a peptide exchange yield of 20 to 50%.
As for IPSRLLAIL, the peptide exchange yield lay in the range of 50 to 75%.
As to SPIKVPLLL, the peptide exchange yield was 50 to 75%.
For VPDGVSKVL, the peptide exchange yield lay in the range of 20 to 50%.
In the case of FELPTGAGLQL, the peptide exchange yield was 20 to 50%.
With HDPDVGSNSL, the peptide exchange yield fell in the range of 20 to 50%.
For the molecule RPASSLRP, the peptide exchange yield is 20 to 50%.
SPGDKRLAA: the peptide exchange yield is 50 to 75%.
NPYEGRVEV had a peptide exchange yield of 20 to 50%.
The same measure, in the same setting: as for SPMWHVQQL, the figure is 50 to 75%; as for GPGTRLSL, 20 to 50%; as for SPSPGKDPTL, 20 to 50%.
Same read-out and setting: the figure for FPAHPSLLL is 20 to 50%; for TPIAKVSEL it is 50 to 75%.
As to YPLTGDTRL, the peptide exchange yield lay in the range of 20 to 50%.
Still for that read-out and setting: as for ISTPSEVSTPL, the figure is 20 to 50%; as for VVHPRTLLL, 20 to 50%; as for RPAPADSAL, 50 to 75%.
With APKLFAVAF, the peptide exchange yield lay within 50 to 75%.
The molecule APAAVPSAPA registered a peptide exchange yield of 50 to 75%.
Still for that read-out and setting: the figure for HPQVVILSL is 50 to 75%; for VPERGEPEL it is 20 to 50%.
FPTEVTPHAF yielded a peptide exchange yield of 20 to 50%.
Still for that read-out and setting: as for RVPSYTLIL, the figure is 50 to 75%.
As for FPYPYAERL, the peptide exchange yield is 20 to 50%.

The values above are taken from US20180291082A1 (IMMATICS BIOTECHNOLOGIES, published 2018).
